T1: NOD mouse SIRP-α D1 domain (mouse (NOD strain))
T1 chain: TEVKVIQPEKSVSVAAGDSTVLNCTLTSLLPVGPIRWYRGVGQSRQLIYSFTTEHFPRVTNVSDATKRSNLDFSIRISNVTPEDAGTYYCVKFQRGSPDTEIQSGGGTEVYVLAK

T2: C57BL/6 mouse SIRP-α D1 domain (mouse (C57BL/6 strain), UniProt P97797 32-148)
T2 sequence: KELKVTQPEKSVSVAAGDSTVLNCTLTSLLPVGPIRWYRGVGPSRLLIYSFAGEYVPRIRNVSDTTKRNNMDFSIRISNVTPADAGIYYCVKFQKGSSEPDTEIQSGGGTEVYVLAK

T3: BALB/c mouse SIRP-α D1 domain (mouse (BALB/c strain))
T3 chain: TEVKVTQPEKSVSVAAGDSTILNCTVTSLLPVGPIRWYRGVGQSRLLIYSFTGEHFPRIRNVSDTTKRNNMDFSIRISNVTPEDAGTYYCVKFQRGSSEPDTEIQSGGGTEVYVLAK

T4: NOD mouse SIRP-α (mouse (NOD strain))
T4 chain: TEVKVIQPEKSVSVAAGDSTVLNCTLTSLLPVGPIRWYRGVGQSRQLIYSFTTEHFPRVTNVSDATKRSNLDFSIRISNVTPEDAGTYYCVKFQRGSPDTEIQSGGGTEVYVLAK

T5: BL6 mouse SIRP-α (mouse (C57BL/6 strain), UniProt P97797 32-148)
T5 construct: also called C57BL/6
T5 sequence: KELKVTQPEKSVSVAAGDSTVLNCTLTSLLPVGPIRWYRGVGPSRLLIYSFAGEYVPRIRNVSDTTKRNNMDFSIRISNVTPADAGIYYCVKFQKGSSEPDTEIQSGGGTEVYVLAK

T6: BALBc mouse SIRP-α (mouse (BALB/c strain))
T6 chain: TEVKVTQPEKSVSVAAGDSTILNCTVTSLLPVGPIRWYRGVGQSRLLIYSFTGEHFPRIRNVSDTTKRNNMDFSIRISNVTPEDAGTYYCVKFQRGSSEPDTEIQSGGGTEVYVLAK


Experiments:
[1] = target: T7, human SIRP-α v1 D1 domain (human, UniProt P78324 31-149); experiment: SPR, antibody immobilised on GLC chip
T7 construct: also called human v1; human α v1
T7 sequence (P78324 31-149 limits assumed): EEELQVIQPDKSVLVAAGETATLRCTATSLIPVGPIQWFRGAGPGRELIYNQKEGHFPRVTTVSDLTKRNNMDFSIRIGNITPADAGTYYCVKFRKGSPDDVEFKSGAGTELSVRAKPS
Experimental: (§1) All experiments were performed at 25° C. using a SPR-based ProteOn XPR36 biosensor (BioRad, Inc, Hercules, Calif.) equipped with GLC or NLC sensor chips. […] Purification was carried out by standard Protein A affinity column chromatography and eluted antibodies were stored in PBS buffer.
(§2) For the method using GLC chip, the analytes were injected and flowed over anti-SIRPα antibodies immobilized (˜1000 RUs) on GLC chips using Proteon™ Amine Coupling Kit. For the immobilization step, GLC chip was activated with EDAC/Sulpho-NHS 1:1 (Biorad) diluted 1/100 for 300 s at 25 μL/min. Anti-SIRPα antibodies were diluted to 80 nM concentration in 10 mM sodium acetate buffer pH 4.5 and immobilized to the chip at 30 μL/min for 50 s. Chip was inactivated with ethanolamine for 300 s at 25 μL/min. The analytes (e.g., SIRP-α from different species, SIRP-β, SIRP-γ) were injected in a “one-shot” kinetic mode at nominal concentrations of 100, 33, 11, 3.7, 1.2 and 0 nM. Association times were monitored for 90 s at 100 μL/min, and dissociation times were monitored for 1200 s. The surfaces were regenerated with a 2:1 v/v blend of Pierce IgG elution buffer/4M NaCl. […]

[2] = target: T8, human SIRPγ isoform 1 (human, UniProt Q9P1W8 29-147); experiment: SPR, antibody immobilised on GLC chip
T8 construct: also called sirpg; sirp-g
T8 sequence (Q9P1W8 29-147 limits assumed): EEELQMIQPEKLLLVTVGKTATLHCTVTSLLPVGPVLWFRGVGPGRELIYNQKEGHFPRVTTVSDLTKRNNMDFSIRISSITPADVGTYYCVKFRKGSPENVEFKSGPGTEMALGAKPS
Experimental: as §1, §2

[3] = target: T9, human SIRP-α v2 D1 domain (human); experiment: SPR, antibody immobilised on GLC chip
T9 construct: also called human v2; human α v2
T9 sequence (chain, as listed by the source limits assumed): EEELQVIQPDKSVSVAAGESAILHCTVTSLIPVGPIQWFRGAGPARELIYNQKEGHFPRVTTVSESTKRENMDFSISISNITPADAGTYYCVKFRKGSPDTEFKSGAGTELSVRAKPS
Experimental: as §1, §2

[4] = target: T1, NOD mouse SIRP-α D1 domain; experiment: SPR, antibody immobilised on GLC chip
Experimental: as §1, §2

[5] = target: T2, C57BL/6 mouse SIRP-α D1 domain; experiment: SPR, antibody immobilised on GLC chip
Experimental: as §1, §2

[6] = target: T3, BALB/c mouse SIRP-α D1 domain; experiment: SPR, antibody immobilised on GLC chip
Experimental: as §1, §2

[7] = target: T10, human SIRP-α v1 (human, UniProt P78324 31-149); experiment: SPR
T10 construct: also called Human v1; Human V1
T10 sequence (P78324 31-149 limits assumed): as the sequence (P78324 31-149 limits assumed) above
Procedure, shortened: (§3)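 On a ProteOn XPR36 biosensor, purified antibodies were either amine-coupled to a GLC chip or captured on an NLC chip using biotinylated Protein A. The running buffer was PBS pH 7.4 with 0.01% Tween-20, at 25° C. SIRP analytes, at nominal concentrations fixed by A280 absorbance, were injected in one-shot kinetic mode. The rate constants are apparent values from a global simple Langmuir fit of double-referenced data, and KD equals kd/ka.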

[8] = target: T4, NOD mouse SIRP-α; experiment: SPR
Procedure, shortened: as §3

[9] = target: T5, BL6 mouse SIRP-α; experiment: SPR
Procedure, shortened: as §3

[10] = target: T6, BALBc mouse SIRP-α; experiment: SPR
Procedure, shortened: as §3

| Binder | Kd [1] | Kd [2] | Kd [3] | Kd [4] | Kd [5] | Kd [6] | Kd [7] | Kd [8] | Kd [9] | Kd [10] |
| --- | --- | --- | --- | --- | --- | --- | --- | --- | --- | --- |
| antibody 136 variant MutRv_S12T/mut (antibody, human IgG1, V domains shown, Human IgG1 with L234A/L235A/G237A/N297A; Labels are light chain/heavy chain) VH: EVQLVESGGGVVQPGRSLRLSCAASGFTFSSYDVNWVRQAPGKGLEWVSLISGSGEIIYYADSVKGRFTISRDNSKNTLYLQMNSLRAEDTAVYYCAKENNRYRFFDDWGQGTLVTVSS VL: EIVLTQSPGTLTLSPGERATLSCRASQSVYTYLAWYQQKPGQAPRLLIYGASSRATGIPDRFSGSGSGTEFTLTISSLQSEDFAVYYCQQYYDRPPLTFGGGTKVEIK | 4.88 nM | 66.7 nM | 10.5 nM | 2.85 nM | 16.3 nM | 2.09 nM |  |  |  |  |
| Hum1/AB25_HC_Mutall (antibody, V domains shown) VH: EVQLVESGGGVVQPGGSLRLSCAASGFTFSSNAMSWVRQAPGKGLEWVAGISSGSDTYYGDSVKGRFTISRDNSKNTLYLQMNSLTAEDTAVYYCARETWNHLFDYWGQGTLVTVSS VL: SYELTQPPSVSVSPGQTARITCSGGSYSSYYYAWYQQKPGQAPVTLIYSDDKRPSNIPERFSGSSSGTTVTLTISGVQAEDEADYYCGGYDQSSYTNPFGGGTKLTVL |  |  |  |  |  |  | 0.00519 nM | 4.83 nM | 10.3 nM | 7.25 nM |
| Hum8/AB25_HC_Mutall (antibody, V domains shown) VH: EVQLVESGGGVVQPGGSLRLSCAASGFTFSSNAMSWVRQAPGKGLEWVAGISSGSDTYYGDSVKGRFTISRDNSKNTLYLQMNSLTAEDTAVYYCARETWNHLFDYWGQGTLVTVSS VL: SYELTQPPSVSVSPGQTARITCSGGAYSSYYYAWYQQKPGQAPVLVIYSDSKRPSGIPERFSGSSSGTTVTLTISGVQAEDEADYYCGGYDQSSYTNPFGGGTKLTVL |  |  |  |  |  |  | 0.0262 nM | 20.5 nM | 497000 nM | 59.9 nM |

The remaining binders from weak to strong by Kd [7], led by results:

| Kd [1] | Kd [2] | Kd [3] | Kd [4] | Kd [5] | Kd [6] | Kd [7] | Kd [8] | Kd [9] | Kd [10] | Binder |
| --- | --- | --- | --- | --- | --- | --- | --- | --- | --- | --- |
|  |  |  |  |  |  | 0.0129 nM | 61.2 nM | 11.5 nM | 38.3 nM | Hum9/AB25_HC_Mutall (antibody, V domains shown) VH: EVQLVESGGGVVQPGGSLRLSCAASGFTFSSNAMSWVRQAPGKGLEWVAGISSGSDTYYGDSVKGRFTISRDNSKNTLYLQMNSLTAEDTAVYYCARETWNHLFDYWGQGTLVTVSS VL: SYELTQPPSVSVSPGQTARITCSGGAYSSYYYAWYQQKPGQAPVLVIYSDDKRPSGIPERFSGSSSGTTVTLTISGVQAEDEADYYCGGYDQSSYTNPFGGGTKLTVL |
|  |  |  |  |  |  | 0.00437 nM | 2.92 nM | 9.03 nM | 5.77 nM | Hum1/AB27_HC_Mutall (antibody, V domains shown) VH: EVQLVESGGGVVQPGGSLRLSCAASGFRFSSYAMSWVRQAPGKGLEWVSGISSGGDTYYVDSVKGRFTISRDNSKNTLYLQMNSLRAEDTAVYYCARETWNHLFDYWGQGTLVTVSS VL: SYELTQPPSVSVSPGQTARITCSGGSYSSYYYAWYQQKPGQAPVTLIYSDDKRPSNIPERFSGSSSGTTVTLTISGVQAEDEADYYCGGYDQSSYTNPFGGGTKLTVL |

Reference: patent US20210363269A1 (ALX ONCOLOGY, published 2021)
